From patent publication US20210063414A1, “METHODS FOR PREVENTING AND/OR TREATING BONE LOSS CONDITIONS BY MODULATING IRISIN” (Dana-Farber Cancer Institute, Inc., priority 2018, published 2021)

Assays:
Assay in all cases: Crosslinking/co-immunoprecipitation/mass spectrometry (TMT quantitative proteomics) to identify irisin receptors
Format in all cases: binding
[1] = target: T1, MLO-Y4 cell surface proteins (Mus musculus, UniProt P04117); conditions: co-precipitated protein Fabp4 (FABP4_MOUSE)
T1 construct: endogenous in cells; host or cells: MLO-Y4
T1 sequence (P04117 1-132): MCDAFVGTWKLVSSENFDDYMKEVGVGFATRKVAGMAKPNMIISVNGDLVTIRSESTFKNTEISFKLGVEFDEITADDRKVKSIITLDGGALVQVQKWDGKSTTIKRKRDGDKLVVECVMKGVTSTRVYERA
Method in brief: (§1)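 Mouse MLO-Y4 cells were switched to serum-free FreeStyle medium for 4 h, chilled, then exposed to 10 nM His-tagged irisin (or adipsin as control) for 20 min. Cells were crosslinked with 1.5 mM DTSSP (30 min, ice), and bound proteins were pulled down on Ni-NTA and eluted with 250 mM imidazole. Eluates were separated by SDS-PAGE, trypsin-digested in gel, TMT 6-plex labelled and quantified by MS3-based LC-MS/MS on an Orbitrap Fusion Lumos.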

[2] = target: T2, MLO-Y4 cell surface proteins (Mus musculus, UniProt P59999); conditions: co-precipitated protein Atpc4 (ARPC4_MOUSE)
T2 construct: endogenous in cells; host or cells: MLO-Y4
Method in brief: as §1

[3] = target: T3, MLO-Y4 cell surface proteins (Mus musculus, UniProt P62960); conditions: co-precipitated protein Ybx1 (YBOX1_MOUSE)
T3 construct: endogenous in cells; host or cells: MLO-Y4
Method in brief: as §1

[4] = target: T4, MLO-Y4 cell surface proteins (Mus musculus, UniProt Q66GT5); conditions: co-precipitated protein Ptpmt1 (PTPM1_MOUSE)
T4 construct: endogenous in cells; host or cells: MLO-Y4
T4 sequence (Q66GT5 32-193): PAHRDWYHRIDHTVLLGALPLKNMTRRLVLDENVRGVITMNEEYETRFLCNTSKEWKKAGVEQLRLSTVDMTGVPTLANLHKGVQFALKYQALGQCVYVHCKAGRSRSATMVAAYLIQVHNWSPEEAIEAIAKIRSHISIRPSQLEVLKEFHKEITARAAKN
Method in brief: as §1

[5] = target: T5, MLO-Y4 cell surface proteins (Mus musculus, UniProt Q8R1J9); conditions: co-precipitated protein Tor2a (TOR2A_MOUSE)
T5 construct: endogenous in cells; host or cells: MLO-Y4
Method in brief: as §1

[6] = target: T6, MLO-Y4 cell surface proteins (Mus musculus, UniProt Q9CYR0); conditions: co-precipitated protein Ssbp1 (SSBP_MOUSE)
T6 construct: endogenous in cells; host or cells: MLO-Y4
T6 sequence (Q9CYR0 17-152): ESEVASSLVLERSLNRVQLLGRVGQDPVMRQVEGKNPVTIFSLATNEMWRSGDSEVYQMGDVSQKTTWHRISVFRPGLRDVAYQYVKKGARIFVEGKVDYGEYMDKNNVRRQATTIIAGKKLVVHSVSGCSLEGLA
Method in brief: as §1

[7] = target: T7, MLO-Y4 cell surface proteins (Mus musculus, UniProt Q9DCW4); conditions: co-precipitated protein Etfb (ETFB_MOUSE)
T7 construct: endogenous in cells; host or cells: MLO-Y4
T7 sequence (Q9DCW4 1-255): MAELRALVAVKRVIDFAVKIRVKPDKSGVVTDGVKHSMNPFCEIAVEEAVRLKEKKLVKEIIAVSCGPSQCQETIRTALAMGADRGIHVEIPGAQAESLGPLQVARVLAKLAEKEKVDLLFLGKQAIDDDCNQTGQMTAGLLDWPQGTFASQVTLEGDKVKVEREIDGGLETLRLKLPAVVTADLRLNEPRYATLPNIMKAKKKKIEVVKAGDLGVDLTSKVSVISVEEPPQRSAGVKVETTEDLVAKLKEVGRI
Method in brief: as §1

T3 sequence (P62960 whole entry): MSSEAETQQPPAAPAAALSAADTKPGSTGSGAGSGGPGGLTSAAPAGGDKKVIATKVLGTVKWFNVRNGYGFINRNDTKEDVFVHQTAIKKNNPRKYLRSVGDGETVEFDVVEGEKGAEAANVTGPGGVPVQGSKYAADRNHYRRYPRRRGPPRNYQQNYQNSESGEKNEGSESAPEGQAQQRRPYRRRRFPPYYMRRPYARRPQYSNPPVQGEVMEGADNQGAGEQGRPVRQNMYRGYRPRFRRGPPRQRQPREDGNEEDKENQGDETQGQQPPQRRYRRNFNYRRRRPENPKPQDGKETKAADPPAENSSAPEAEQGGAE
T5 sequence (Q8R1J9 27-321): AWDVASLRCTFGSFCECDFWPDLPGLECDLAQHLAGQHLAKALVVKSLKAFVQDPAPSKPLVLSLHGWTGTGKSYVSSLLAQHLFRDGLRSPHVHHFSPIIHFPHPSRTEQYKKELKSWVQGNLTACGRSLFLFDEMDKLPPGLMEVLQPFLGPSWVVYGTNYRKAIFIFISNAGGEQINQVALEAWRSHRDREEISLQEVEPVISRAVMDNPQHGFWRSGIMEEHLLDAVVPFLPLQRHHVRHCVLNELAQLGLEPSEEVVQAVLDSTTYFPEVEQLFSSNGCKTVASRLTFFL

- TMT signal-to-noise ratio [1]: 746.54
- TMT signal-to-noise ratio [2]: 138.296
- TMT signal-to-noise ratio [3]: 219.172
- TMT signal-to-noise ratio [4]: 92.3664
- TMT signal-to-noise ratio [5]: 696.28
- TMT signal-to-noise ratio [6]: 432.759
- TMT signal-to-noise ratio [7]: 730.275
Substance: adipsin
